According to patent publication US20200362024A1, “BIOLOGICAL MATERIALS AND USES THEREOF” (IMPERIAL INNOVATIONS LIMITED, priority 2009, published 2020):

Experiments:
[1] = system: primary human macrophages; test: Cytokine synthesis in primary human macrophages stimulated with tenascin-C or its domains; assay type: cell-based
Procedure: Human monocytes were isolated from peripheral blood (London Blood Bank) and macrophages were derived from monocytes after differentiation for 4 days with 100 ng/ml of M-CSF as previously described (Foxwell (1998)).
(§1) Immediately after isolation, RA membrane cells and macrophages were cultured at 1×10^5 cells/well in RPMI 1640 containing 10% (v/v) FBS and 100 U/ml (Units/ml) penicillin/streptomycin in 96-well tissue culture plates for 24 hours before stimulation. Synovial fibroblasts (used only at either passage number 2 or 3) were cultured at 1×10^4 cells/well in DMEM containing 10% (v/v) FBS and 100 U/ml penicillin/streptomycin in 96-well tissue culture plates for 24 hours before stimulation.
(§2) Cells were incubated for 24 hours at 37° C. with the indicated doses of tenascin-C and recombinant tenascin-C fragments (1.0 μM-1.0 nM). Cells were also stimulated where indicated with LPS (1 ng/ml for human macrophages, 10 ng/ml for human fibroblasts, RA membrane cells and HEKs, 100 ng/ml for MEFS and BMDMs and 10 ng/ml for HEKS), PAM3 (10 ng/ml for human macrophages, human fibroblasts, and HEKs, 100 ng/ml for MEFs and BMDMs), murine IL-1 (5 ng/ml for MEFS) and murine TNF-α (100 ng/ml for MEFS). Unless specifically stated otherwise rough LPS was used for in vitro studies.
(§3) Where stated, cells were pre-incubated with 10 μg/ml anti-CD14 antibody, 10 μg/ml IL1 receptor antagonist, 10 μg/ml anti-TLR2 antibody, 25 μg/ml anti-TLR4 antibody, 10 or 25 μg/ml isotype control antibody, 25 μg/ml polymyxin B, or 1 μg/ml msbB LPS, for 30 minutes at 37° C. before stimulation. Where stated, recombinant tenascin-C and FBG, and LPS were boiled for 15 minutes before addition to cells
(§4) Supernatants were subsequently examined for the presence of the cytokines TNF-α, IL-6, and IL-8 by enzyme-linked immunosorbent assay (ELISA) according to the manufacturer's instructions. Absorbance was read on a spectrophotometric ELISA plate reader (Labsystems Multiscan Biochromic, Vantaa, Finland) and analyzed using the Ascent software program (Thermo Labsystems, Altrincham, UK).

RA synovial fibroblasts = test: Cytokine synthesis in RA synovial fibroblasts stimulated with tenascin-C, FBG or LPS; assay type: cell-based, human; conditions: 24 h; LPS 10 ng/ml
Text: RA membrane cells (representing a mixed population of all synovial cell types) were isolated from synovial membranes obtained from patients undergoing joint replacement surgery as previously described (Brennan (1989)). RA synovial fibroblasts were isolated from the mixed population of RA membrane cells as previously described (Brennan (1989)). The study was approved by the local Trust ethics committee (Riverside NHS Research Committee), and waste tissue (synovium after joint replacement surgery) was obtained only after receiving signed informed consent from the patient and anonymyzing the tissue to protect patient identity.
as §1, §2, §3, §4

[2] = system: knee joint of wild type mice; test: Intra-articular injection of FBG into the knee joint of wild type mice; assay type: in vivo
Procedure: Wild type mice were anesthetized by intraperitoneal injection of 150 μl of Hypnorm diluted 1:10 in sterile water and then injected with 100 ng, 1 or 3 μg FBG in 10 μl of sterile PBS into the right knee joint using a sterile 33-gauge microcannula. Control mice received an injection of 10 μl PBS alone or were not injected.
On days 3 and 7, mice were euthanized, the knee joints were excised and fixed in 10% (volume/volume) buffered formalin, decalcified, with 10% EDTA and processed to paraffin.
Coronal tissue sections (4 μm) were cut at 7 depths throughout the joint; 80 μm apart and stained with hematoxylin and eosin or Safranin-O to assess joint pathology.
Inflammation (the influx of inflammatory cells into synovium (infiltrate) and the joint cavity (exudates), was graded using an arbitrary scale from 0 (no inflammation) to 3 (severe inflammation). Chondrocyte death was determined as the percentage of cartilage area containing empty lacunae in relation to the total area. Cartilage surface erosion was determined as the amount of cartilage lost in relation to the total cartilage area. Bone destruction was determined in 10 different areas of the total knee joint section. Destruction was graded on a scale of 0 (no damage) to 3 (complete loss of bone structure). Histological analysis was performed by an investigator who was blinded to the experimental groups. The mean score for each animal in an experimental group was calculated by averaging the histopathologic scores in at least 5 section depths per joint.

[3] = system: TLR2 or TLR4 deficient embryonic fibroblasts and bone marrow derived macrophages; test: Cytokine synthesis in embryonic fibroblasts and macrophages from TLR2 or TLR4 deficient mice; assay type: cell-based, mouse; conditions: 24 h
Text: Homozygous TLR2 and TLR4 deficient mice on a C57BL/6 background (an inbred strain of mice with a black coat) were obtained from B&K Universal (Hull, UK) Hoshino (1999) and Takeuchi (1999). Homozygous MyD88 deficient mice on a C57BL/6 background were provided by the Sanger Institute (Cambridge, UK). Age matched congenic inbred wild type C57B/L6 mice were obtained from Charles River (Margate, UK). For isolation of mouse embryo fibroblasts one female aged 8-10 weeks was mated with two males aged 8-10 weeks. For isolation of bone marrow derived macrophages mice were female and between 10-12 weeks of age at the time of experimentation.
MEFs express high levels of mRNA of all 9 murine TLRs and are specifically and highly responsive to TLR ligand activation. […] MEFs were isolated from d13 embryos harvested from age-matched, pregnant female wild type, TLR2, TLR4 and null mice (as described in Todaro (1963)). Fibroblasts were cultured at 2×10^4 cells/well in DMEM containing 10% (v/v) FBS and 100 U/ml penicillin/streptomycin in 96-well tissue culture plates for 24 hours before stimulation.
BMDMs were derived by aspirating the femurs of age matched female wild type, TLR2 and TLR4 null mice as described in Butler (1999)) and culturing the cells for 7 days in DMEM, 20% (v/v) FBS, 10 ml/L (v/v) antibiotic-antimycotic solution PSA, 50 μM Mercaptoethanol and 10 ng/ml M-CSF. Macrophages were then cultured at 1×10^5 cells/well in DMEM, 20% (v/v) FBS, 10 ml/L (v/v) antibiotic-antimycotic solution PSA, 50 μM β-Mercaptoethanol in 96-well tissue culture plates for 24 hours before stimulation.
as §2, §4

B1: FBG: recombinant fibrinogen-like globe, 227 amino acid globular domain at the C terminal of tenascin-C (protein)
chain: GLLYPFPKDCSQAMLNGDTTSGLYTIYLNGDKAEALEVFCDMTSDGGGWIVFLRRKNGRENFYQNWKAYAAGFGDRREEFWLGLDNLNKITAQGQYELRVDLRDHGETAFAVYDKFSVGDAKTRYKLKVEGYSGTAGDSMAYHNGRSFSTFDKDTDSAITNCALSYKGAFWYRNCHRVNLMGRYGDNNHSQGVNWFHWKGHEHSIQFAEMKLRPSNFRNLEGRRKRA
TNF-α, IL-6 and IL-8 synthesis in human macrophages ([1]; 1.0 μM tenascin-C domains, 24 h): stimulated | cytokine stimulation: heat sensitivity and effect of polymyxin B ([1]; boiled 15 minutes, 25 μg/ml polymyxin B pre-incubation, human macrophages and synovial fibroblasts): heat sensitive and unaffected by polymyxin B | IL-6 synthesis in RA synovial fibroblasts (RA synovial fibroblasts): stimulated | IL-8 synthesis in RA synovial fibroblasts (RA synovial fibroblasts): did not induce | joint histology ([2]; 100 ng FBG intra-articular): No inflammation or proteoglycan loss | joint histology ([2]; 1 μg FBG intra-articular, 3 days): inflammatory cell infiltration (FIG. 6f), mild synovitis, pannus formation (FIG. 6g) and proteoglycan loss (FIG. 6h) was observed | histological quantification: cartilage surface erosion and bone damage ([2]; 1 μg FBG, 3 days (FIG. 6i)): modest amount | histological quantification: cellular infiltrate and exudate and chondrocyte death ([2]; 1 μg FBG, 3 days (FIG. 6i)): high levels | joint histology ([2]; 3 μg FBG intra-articular): A similar response | joint inflammation ([2]; intra-articular 100 ng, 1 or 3 μg): transient and dose dependent stimulation of joint inflammation | cytokine synthesis in cells from TLR2 deficient mice [3]: unaffected | cytokine synthesis in cells from TLR4 deficient mice [3]: does not stimulate
